Assay results taken from patent US6177557, “High affinity ligands of basic fibroblast growth factor and thrombin” (NeXstar Pharmaceuticals, Inc.).

Experiments:
thrombin (alpha) [1] = molecular target: T1, thrombin (alpha) (human, UniProt P00734;P00734 P00734:328-363,P00734:364-622); experiment: filter; ERL thrombin, 1 mM MgCl2, 37 C
[2] = molecular target: T2, basic fibroblast growth factor (bFGF) (UniProt P09038 P09038:135-288); experiment: filter; PBS, 0.01% HSA, 1 mM DTT, 37 C; +/-0.4; conditions: tags: Bachem California, 18 kDa, 154 aa; 125I-labeled for receptor assays
T2 sequence (P09038 135-288, one chain of several): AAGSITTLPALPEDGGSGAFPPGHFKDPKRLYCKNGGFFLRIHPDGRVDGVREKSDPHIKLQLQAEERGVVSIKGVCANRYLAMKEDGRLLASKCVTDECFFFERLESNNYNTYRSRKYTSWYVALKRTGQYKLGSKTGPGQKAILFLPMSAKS
Method: (§1) This affinity screening allowed identification of those ligands with highest affinity for bFGF. Binding of a group of these ligands was analyzed over a range of bFGF concentrations (FIG. 5) and their dissociation constants.(Kd's) were determined as described (Jellinek et al. (1993) Proc. Natl. Acad. Sci. USA 90:11227–11231) (Table IX). RNA concentrations were determined from their absorbance reading at […] (and were typically <100 pM). Binding reactions were done at 37° C. in phosphate buffered saline containing 0.01% human serum albumin and 1 mM DTT.

[3] = molecular target: T2, basic fibroblast growth factor (bFGF); experiment: filter; PBS, 0.01% HSA, 1 mM DTT, 37 C; +/-0.2; conditions: tags: Bachem California, 18 kDa, 154 aa; 125I-labeled for receptor assays
Method: as §1

[4] = molecular target: T2, basic fibroblast growth factor (bFGF); experiment: filter; tested for affinity (*), Family 5; no value given; conditions: tags: Bachem California, 154 aa, 18 kDa
[5] = molecular target: T2, basic fibroblast growth factor (bFGF); experiment: filter; tested for affinity (*), Family 2; no value given; conditions: tags: Bachem California, 154 aa, 18 kDa
thrombin (alpha) [6] = molecular target: T1, thrombin (alpha); experiment: filter; curve only in figure; ERL thrombin
thrombin (alpha) [7] = molecular target: T1, thrombin (alpha); experiment: filter; curve only in figure
thrombin (alpha) [8] = molecular target: T1, thrombin (alpha); experiment: filter; 100 mM NaCl, 50 mM Tris pH 7.7, 1 mM DTT, 1 mM MgCl2, 37 C
[9] = molecular target: T2, basic fibroblast growth factor (bFGF); experiment: filter; tested for affinity (*), Family 3; no value given; conditions: tags: Bachem California, 154 aa, 18 kDa
thrombin (alpha) [10] = molecular target: T1, thrombin (alpha); experiment: filter; specificity, data not shown
acidic FGF = acidic FGF (UniProt P05230 P05230:16-155); experiment: filter; specificity, data not shown; conditions: label: 32P
Sequence of acidic FGF (P05230 16-155, one chain of several): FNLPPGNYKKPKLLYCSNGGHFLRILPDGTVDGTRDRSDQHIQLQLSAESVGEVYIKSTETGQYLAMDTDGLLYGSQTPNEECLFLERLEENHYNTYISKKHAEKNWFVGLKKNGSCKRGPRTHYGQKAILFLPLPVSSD

antithrombin III = antithrombin III (UniProt P01008 P01008:33-464); experiment: filter; specificity, data not shown; conditions: label: 32P
Sequence of antithrombin III (P01008 33-464, one chain of several): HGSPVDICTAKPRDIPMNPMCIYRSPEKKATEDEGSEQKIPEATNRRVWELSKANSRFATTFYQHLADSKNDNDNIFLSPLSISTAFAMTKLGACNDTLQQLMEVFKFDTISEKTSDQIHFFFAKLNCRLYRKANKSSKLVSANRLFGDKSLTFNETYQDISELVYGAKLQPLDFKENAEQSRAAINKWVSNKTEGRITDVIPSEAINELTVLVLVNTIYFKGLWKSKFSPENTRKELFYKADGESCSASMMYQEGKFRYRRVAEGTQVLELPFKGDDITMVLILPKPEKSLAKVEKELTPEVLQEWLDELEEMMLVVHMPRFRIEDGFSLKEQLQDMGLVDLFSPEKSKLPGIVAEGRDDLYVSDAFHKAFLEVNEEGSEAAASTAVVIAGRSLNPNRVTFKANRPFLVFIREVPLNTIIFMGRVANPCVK

[11] = molecular target: T3, vascular endothelial growth factor (VEGF) (UniProt P15692-4 P15692-4:27-191); experiment: filter; specificity, data not shown; conditions: chain copies: 2; label: 32P
T3 sequence (P15692 other isoform, or with tags, fused parts or gaps): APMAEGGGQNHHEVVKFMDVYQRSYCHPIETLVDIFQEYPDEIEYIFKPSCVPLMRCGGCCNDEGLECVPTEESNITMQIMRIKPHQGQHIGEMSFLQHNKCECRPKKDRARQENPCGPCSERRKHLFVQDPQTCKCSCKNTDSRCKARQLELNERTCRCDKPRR

[12] = molecular target: T2, basic fibroblast growth factor (bFGF); experiment: competition; displacement from low-affinity receptor on BHK cells; high-affinity receptor >1 uM; conditions: tags: Bachem California, 18 kDa, 154 aa; 125I-labeled for receptor assays; label: 32P
Method: Additionally, modified RNA ligands 21A (SEQ ID NO:104), 38B (SEQ ID NO:114) and Random RNAs were tested.
Receptor Binding Studies. bFGF was labeled with ^125I by the Iodo-Gen (Pierce) procedure as described by Moscatelli (1987) J. Cell. Physiol. 131:123. […] The amount of ^125I-bFGF bound to the low- and the high-affinity receptor sites was determined as described by Moscatelli (1987) supra.

thrombin (alpha) [13] = molecular target: T1, thrombin (alpha); experiment: filter; 30% binding at 300 nM tracer is not separately tabulated; curve in figure
[14] = molecular target: T2, basic fibroblast growth factor (bFGF); experiment: filter; PBS, 0.01% HSA, 1 mM DTT, 37 C; +/-1.1; conditions: tags: Bachem California, 18 kDa, 154 aa; 125I-labeled for receptor assays
Method: as §1

[15] = molecular target: T2, basic fibroblast growth factor (bFGF); experiment: filter; PBS, 0.01% HSA, 1 mM DTT, 37 C; +/-0.1; conditions: tags: Bachem California, 18 kDa, 154 aa; 125I-labeled for receptor assays
Method: as §1

[16] = molecular target: human chorionic gonadotropin (human, UniProt P01215;P0DN86 P01215:25-116,P0DN86:21-165); experiment: filter; conditions: 6-base G-C stem with blunt end
Sequence of human chorionic gonadotropin (P01215 25-116, chain 1 of 2, other chains not shown): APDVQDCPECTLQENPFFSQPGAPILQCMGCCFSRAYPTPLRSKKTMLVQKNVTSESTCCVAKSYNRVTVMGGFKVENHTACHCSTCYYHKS

[17] = molecular target: T3, vascular endothelial growth factor …; experiment: filter; conditions: chain copies: 2; 6-base G-C stem with blunt end
[18] = molecular target: T2, basic fibroblast growth factor (bFGF); experiment: filter; conditions: tags: Bachem California, 18 kDa, 154 aa; 125I-labeled for receptor assays; 6-base G-C stem with blunt end
Method: In order to eliminate higher order structures, all DNA solutions were heated to 90° C. in PBS for 2–3 minutes and cooled on ice prior to incubation with protein. Relative binding affinity of individual ligands to bFGF cannot be predicted from sequence information. The majority of sequence isolates were therefore screened for their ability to bind to bFGF by measuring the fraction of radiolabeled DNA bound to nitrocellulose filters following incubation with 1 nM protein. […] Binding of these select isolates was then analyzed in more detail.
Those ligands are M225, M19, m234, M235, and D12 (SEQ ID NOS:359, 353, 387, 360, 332). The minimum size of the region necessary for binding was determined to be 35 bases for M225, M19 and D12 (See Truncations, Table XXI M225t3 (SEQ ID NO:364), M19t2 (SEQ ID NO:365), D12t2 (SEQ ID NO:341)). The ligand with the smallest essential sequence, m234, was isolated from Family 2, Experiment 3 and contains 24 nucleotides (m234t2 (SEQ ID NO:391)). The truncated ligands were tested for binding to bFGF. After truncation, ligands M225t3, M19t2, D12t2, M235t2, and m234t2 have kd values of 0.7 nM, 1 nM, 1 nM, 1 nM, and 6 nM respectively (Table XXII). All five of the truncated molecules lost some of their affinity for bFGF in comparison to the full length ligands. The binding affinity is regained when an additional G-C base pair is added to the blunt end stem of M225t3. This molecule is termed M225t3GC (SEQ ID NO:443). The binding of M225t3GC is 0.2 nM compared to 0.7 nM for M225t3 without the additional base pair (Table XXII).

[19] = molecular target: T2, basic fibroblast growth factor (bFGF); experiment: filter; PEG 3400 conjugate; conditions: tags: Bachem California, 18 kDa, 154 aa; 125I-labeled for receptor assays

Binder: GGTTGGTGTGGTTGG (ssDNA) [G15D]
- Kd (thrombin (alpha) [1]): ~200 nM

B1: 2'-NH2 34B (ssRNA)
RNA: GGGAGGACGAUGCGGAACGGGAGGUACGAGAGCGGGAGCGCAUAAAUAGGAAACUCCUUGCACGUCAGACGACUCGCCCGA
modifications: 2'-NH2 pyrimidines
- Kd [2]: 2 nM

B2: 2'-NH2 59A (ssRNA)
RNA: GGGAGACAAGAAUAACGCUCAAUGUGUGGAAGGGUACCUGAGUGGGGAUGGGUUCGACAGGAGGCUCACAACAGGC
modifications: 2'-NH2 pyrimidines
- Kd [3]: 1.2 nM

B3: d1 (ssDNA)
DNA: ATCCGCCTGATTAGCGATACTACACCCAACCCCCTAAGATTTTAGAGCAACTCGGCGCAACACTTGAGCAAAATCACCTGCAGGGG
- binding result [4]: binds

B4: d46 (ssDNA)
DNA: ATCCGCCTGATTAGCGATACTAACACGGTCTGCTGCGACCCCTCGTACTAACGGTACCAGTACTTGAGCAAAATCACCTGCAGGGG
- binding result [5]: binds

Binder: CCGGAUCGAAGUUAGUAGGCCGAG (ssRNA) [24R (Class I clone 16 hairpin)]
- binding result (thrombin (alpha) [6]): binds

B5: thrombin Class I RNA 6 (ssRNA)
RNA: AGAUGCCUGUCGAGCAUGCUGAGGAUCGAAGUUAGUAGGCUUUGUGUGCUCGUAGCUAAACAGCUUUGUCGACGGG
- binding result (thrombin (alpha) [7]): binds

B6: thrombin Class II RNA 27 (ssRNA)
RNA: AGAUGCCUGUCGAGCAUGCUGGUGCGGCUUUGGGCGCCGUGCUUGACGUAGCUAAACAGCUUUGUCGACGGG
- Kd (thrombin (alpha) [8]): ~60 nM

B7: m219 (ssDNA)
DNA: GGGAGGACGATGCGGGCAGCGACCGCGGTACAAGGCATAGGGTACAGACGACGACGGGGA
- binding result [9]: binds

B8: 12A (ssRNA)
RNA: GGGAGCUCAGAAUAAACGCUCAAGGGGCAACGCUACAGACAAGUGCACCCAACUUCGACAUGAGGCCCGGAUCCGGC
- Kd (thrombin (alpha) [10]): > 300 nM
- Kd (acidic FGF): > 300 nM
- Kd (antithrombin III): > 300 nM
- Kd [11]: > 300 nM
- IC50 [12]: > 100 nM

Binder: GAGCAUGCUGGUGCGGCUUUGGGCGCCGUGCUU (ssRNA) [33R (Class II clone 27 hairpin)]
- binding result (thrombin (alpha) [13]): binds

B9: thrombin Class I RNA 18 (ssRNA)
RNA: AGAUGCCUGUCGAGCAUGCUGAUUGUUGCGGAUCGAAGUGAGUAGGCGCUAGUAGCUAAACAGCUUUGUCGACGGG
- binding result (thrombin (alpha) [7]): binds

B10: thrombin Class I RNA 16 (ssRNA)
RNA: AGAUGCCUGUCGAGCAUGCUGCAUCCGGAUCGAAGUUAGUAGGCCGAGGUGGUAGCUAAACAGCUUUGUCGACGGG
- Kd (thrombin (alpha) [8]): ~30 nM

B11: d44 (ssDNA)
DNA: ATCCGCCTGATTAGCGATACTGACCACGACTGATGCGTCGCCTCCCGATAGGCAGTTACCCACTTGAGCAAAATCACCTGCAGGGG
- binding result [5]: binds

B12: 2'-NH2 48B (ssRNA)
RNA: GGGAGGACGAUGCGGCAGGAUAGGAUGGGGUCGGAACCGUGUAUCAUAACGAGUCAUCUCCUGGUCAGACGACUCGCCCGA
modifications: 2'-NH2 pyrimidines
- Kd [14]: 6.7 nM

B13: d9 (ssDNA)
DNA: ATCCGCCTGATTAGCGATACTCGAAGAGTAGGAGGCGATCCGCTCCGTATCAGGTCACATAGGACTTGAGCAAAATCACCTGCAGGGG
- binding result [4]: binds

B14: 2'-NH2 21A (ssRNA)
RNA: GGGAGACAAGAAUAACGCUCAAGUAGACUAAUGUGUGGAAGACAGCGGGUGGUUCGACAGGAGGCUCACAACAGGC
modifications: 2'-NH2 pyrimidines
- Kd [15]: 1.3 nM

Binder: GCGGGGCTACGTACCGGGGCTTTGTAAAACCCCGC (ssDNA) [M225t3]
- Kd [16]: > 200 nM
- Kd [17]: > 200 nM
- Kd [18]: 0.7 nM

Binder: GCGGGGCTACGTACCGGGGCTTTGTAAAACCCCGC (ssDNA, PEG 3400 on 3' amino linker) [PEG-M225t3]
- Kd [19]: 1 nM
